# Assay results as given in patent US20220332804A1 (CSL INNOVATION, published 2022).
# T1: human C2 K329A (human, UniProt P06681 21-752)
# T1 sequence: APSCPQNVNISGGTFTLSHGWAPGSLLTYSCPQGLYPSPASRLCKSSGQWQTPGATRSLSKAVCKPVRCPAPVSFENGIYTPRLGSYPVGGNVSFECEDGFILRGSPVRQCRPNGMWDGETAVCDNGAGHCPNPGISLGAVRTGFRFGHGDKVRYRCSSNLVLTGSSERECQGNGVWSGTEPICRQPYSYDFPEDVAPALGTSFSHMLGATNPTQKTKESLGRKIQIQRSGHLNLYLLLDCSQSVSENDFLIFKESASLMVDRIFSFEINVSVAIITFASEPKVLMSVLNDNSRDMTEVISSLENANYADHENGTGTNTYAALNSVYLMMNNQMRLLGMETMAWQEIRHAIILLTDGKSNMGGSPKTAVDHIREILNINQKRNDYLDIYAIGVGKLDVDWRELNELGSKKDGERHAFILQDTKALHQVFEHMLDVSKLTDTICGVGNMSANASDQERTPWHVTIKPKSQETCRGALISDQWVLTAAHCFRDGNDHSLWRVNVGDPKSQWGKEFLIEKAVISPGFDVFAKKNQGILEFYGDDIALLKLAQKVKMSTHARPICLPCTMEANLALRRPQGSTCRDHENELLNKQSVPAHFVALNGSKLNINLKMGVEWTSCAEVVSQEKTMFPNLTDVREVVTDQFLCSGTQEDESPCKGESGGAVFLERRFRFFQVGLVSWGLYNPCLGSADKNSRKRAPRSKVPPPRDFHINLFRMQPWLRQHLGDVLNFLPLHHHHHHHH
# T2: human C2 K443A (human, UniProt P06681 21-752)
# T2 sequence: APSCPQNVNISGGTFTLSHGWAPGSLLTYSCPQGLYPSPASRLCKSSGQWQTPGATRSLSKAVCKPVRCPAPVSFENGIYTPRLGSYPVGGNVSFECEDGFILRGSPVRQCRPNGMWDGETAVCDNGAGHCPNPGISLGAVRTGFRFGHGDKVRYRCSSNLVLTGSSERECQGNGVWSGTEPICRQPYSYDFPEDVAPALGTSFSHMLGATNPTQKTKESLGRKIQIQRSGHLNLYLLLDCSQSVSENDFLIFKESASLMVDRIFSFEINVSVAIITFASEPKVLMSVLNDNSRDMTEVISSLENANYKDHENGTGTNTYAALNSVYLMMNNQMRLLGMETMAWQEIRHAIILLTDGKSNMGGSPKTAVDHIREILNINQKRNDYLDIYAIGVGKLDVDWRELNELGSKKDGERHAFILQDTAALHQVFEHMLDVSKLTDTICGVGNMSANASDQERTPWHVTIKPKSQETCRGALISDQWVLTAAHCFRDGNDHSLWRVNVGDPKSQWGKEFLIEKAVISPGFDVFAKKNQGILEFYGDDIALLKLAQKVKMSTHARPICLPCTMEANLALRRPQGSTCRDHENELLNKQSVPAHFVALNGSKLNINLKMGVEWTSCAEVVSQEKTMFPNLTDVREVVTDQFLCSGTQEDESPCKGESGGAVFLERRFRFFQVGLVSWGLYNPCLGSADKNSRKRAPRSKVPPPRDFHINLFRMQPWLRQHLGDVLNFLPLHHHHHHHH
# T3: human complement C2 (human, UniProt P06681 21-752)
# T3 construct: Recombinant full-length human C2 with C-terminal 8x His tag, purified from Expi293F supernatant; also called human C2; huC2
# T3 sequence: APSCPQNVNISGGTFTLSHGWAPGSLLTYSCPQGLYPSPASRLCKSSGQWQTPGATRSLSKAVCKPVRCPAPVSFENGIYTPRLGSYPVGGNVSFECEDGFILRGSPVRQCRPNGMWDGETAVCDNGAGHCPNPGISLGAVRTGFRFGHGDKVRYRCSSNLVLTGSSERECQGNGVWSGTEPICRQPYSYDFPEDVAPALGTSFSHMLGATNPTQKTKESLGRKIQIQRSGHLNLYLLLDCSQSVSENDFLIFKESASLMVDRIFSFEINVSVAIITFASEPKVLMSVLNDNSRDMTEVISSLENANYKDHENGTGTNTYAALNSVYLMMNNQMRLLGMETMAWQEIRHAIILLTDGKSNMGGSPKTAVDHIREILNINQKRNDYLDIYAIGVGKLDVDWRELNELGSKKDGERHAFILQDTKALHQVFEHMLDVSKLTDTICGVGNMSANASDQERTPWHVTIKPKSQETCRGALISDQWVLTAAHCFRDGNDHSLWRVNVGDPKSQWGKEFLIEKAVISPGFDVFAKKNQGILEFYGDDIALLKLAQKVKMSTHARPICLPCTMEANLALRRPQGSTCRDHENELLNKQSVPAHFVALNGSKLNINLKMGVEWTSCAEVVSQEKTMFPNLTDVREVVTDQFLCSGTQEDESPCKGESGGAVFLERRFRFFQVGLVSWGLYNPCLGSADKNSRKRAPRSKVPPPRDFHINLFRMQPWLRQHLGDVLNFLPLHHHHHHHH
# How the values were obtained:
# human C2 K329A = biological target: T1, human C2 K329A; assay: SPR, mAb captured, C2 mutant analyte;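 note: Anti-C2 mAbs captured on goat anti-human IgG Biacore CM5 chips, alanine or serine C2 surface mutants flowed over at 37 °C, double-referenced sensorgrams fitted to a 1:1 binding model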
# human C2 K443A = biological target: T2, human C2 K443A; assay: SPR, mAb captured, C2 mutant analyte;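 note: Anti-C2 mAbs captured on goat anti-human IgG Biacore CM5 chips, alanine or serine C2 surface mutants flowed over at 37 °C, double-referenced sensorgrams fitted to a 1:1 binding model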
# human complement C2 [1] = biological target: T3, human complement C2; assay: SPR, mAb captured, huC2 analyte, pH 7.3
# human complement C2 [2] = biological target: T3, human complement C2; assay: SPR, mAb captured, huC2 analyte, neutral pH; pH 7
Binder,Kd (human C2 K329A) [nM],binding result (human C2 K443A),Kd (human complement C2 [1]) [nM],Kd (human complement C2 [2]) [nM]
"RF16-214 (antibody, V domains shown) VH: EVQLLESGGGLVQPGGSLRLSCAASGFTFSWYQMMWVRQAPGKGLEWVSRIYPSGGGTAYADSVKGRFTISRDNSKNTLYLQMNSLRAEDTAVYYCARDAGYGDNWGQGTLVTVSS VL: QSALTQPPSVSVSPGQTASITCSGDKLGEKYASWYQQKAGQSPVMVIYQDRKRPSGIPERFSGSNSGNTATLTISGTQAMDEADYYCQAWDTRAVVFGGGTKLTVLG",62.6,no binding,–,–
RF16-226 (antibody) heavy: not shown light: SYELTQPPSVSVSPGQTARITCSGDALTSKYVAWYQQKSGLAPLLVIYEDTRRPSGIPAKFSGSSSGSVATLTISGAHGDDEADYYCYSTDASGHQRVFGGGTKLTVLSQPKAAPSVTLFPPSSEELQANKATLVCLISDFYPGAVTVAWKADGSPVKAGVETTKPSKQSNNKYAASSYLSLTPEQWKSHRSYSCQVTHEGSTVEKTVAPTECS,–,–,~10,~9
